This passage reports Kd, dH and stoichiometry N results from article doi:10.1101/2024.11.01.621267.

This test deals with recombinant full-length RACK1 protein (ITC) (human) (UniProt P63244). In words: ITC; LARP4 peptide (400 μM; 300 μM for 600–625) injected into RACK1 (40 μM; 30 μM) in the cell; iTC200; 298K; 20 mM HEPES, 300 mM NaCl, 10% glycerol, 1 mM DTT pH 7.5; triplicate. For orientation: In ITC the heat of successive injections is recorded.

Consider “HsLARP4 peptide 612–637 (from UniProt Q71RC2-1 612-637)”, for which the Kd (usually the constant that tells how readily two partners part at equilibrium) is 2100 nM, the dH was -8.6 kcal/mol and the stoichiometry N (commonly a count of units in the complex or per binding partner) is 0.9.
